Our source for the Km values is PMC12176258, “Stabilization of the catalytically active structure of a molybdenum‐dependent formate dehydrogenase depends on a highly conserved lysine residue” (The Febs Journal, 2025).

Substrate in data set [1]: O=CO
The experiment in a line: purified protein. The conditions noted are these: 2 mM BV2+ fixed, formate 0.125-200 mM, 50 mM phosphate pH 7.5, 25 °C, anaerobic.

Substrate in data set [2]: c1ccc(C[n+]2ccc(-c3cc[n+](Cc4ccccc4)cc3)cc2)cc1
The experiment in a line: purified protein. Format: biochemical, Escherichia coli. The conditions noted are these: 10 mM formate fixed, BV2+ 0.125-20 mM, 50 mM phosphate pH 7.5, 25 °C, anaerobic, artificial electron acceptor.

Substitutions are numbered along the chain they refer to. Numbers in names are those of the source.

B1: EcFDH-H (Escherichia coli formate dehydrogenase H) (Escherichia coli K-12) (protein)
chain: MKKVVTVCPYCASGCKINLVVDNGKIVRAEAAQGKTNQGTLCLKGYYGWDFINDTQILTPRLKTPMIRRQRGGKLEPVSWDEALNYVAERLSAIKEKYGPDAIQTTGSSRGTGNETNYVMQKFARAVIGTNNVDCCARVUHGPSVAGLHQSVGNGAMSNAINEIDNTDLVFVFGYNPADSHPIVANHVINAKRNGAKIIVCDPRKIETARIADMHIALKNGSNIALLNAMGHVIIEENLYDKAFVASRTEGFEEYRKIVEGYTPESVEDITGVSASEIRQAARMYAQAKSAAILWGMGVTQFYQGVETVRSLTSLAMLTGNLGKPHAGVNPVRGQNNVQGACDMGALPDTYPGYQYVKDPANREKFAKAWGVESLPAHTGYRISELPHRAAHGEVRAAYIMGEDPLQTDAELSAVRKAFEDLELVIVQDIFMTKTASAADVILPSTSWGEHEGVFTAADRGFQRFFKAVEPKWDLKTDWQIISEIATRMGYPMHYNNTQEIWDELRHLCPDFYGATYEKMGELGFIQWPCRDTSDADQGTSYLFKEKFDTPNGLAQFFTCDWVAPIDKLTDEYPMVLSTVREVGHYSCRSMTGNCAALAALADEPGYAQINTEDAKRLGIEDEALVWVHSRKGKIITRAQVSDRPNKGAIYMTYQWWIGACNELVTENLSPITKTPEYKYCAVRVEPIADQRAAEQYVIDEYNKLKTRLREAALA
notes: full-length selenocysteine-containing enzyme, C-terminal His6-tag, from pTrc99a-fdhF in E. coli JG-X (MC4100 delta-fdhF delta-iscR) with helper pSU21-selC; holds Mo(MGD)2 and one [4Fe-4S] cluster
The term Km denotes the concentration of substrate that gives half-maximal velocity. For the protein B1, the Km in data set [1] stood at 1850 ± 270 µM; in data set [2], 2750 ± 500 µM.

B2: EcFDH-H (Escherichia coli formate dehydrogenase H) (Escherichia coli K-12; K44R) (protein)
chain: B1 chain with K44R
notes: as for B1
For the protein B2, the results for the Km in data set [1] and in data set [2] were 58610 ± 6150 µM and 2210 ± 370 µM, respectively.
